The values below come from patent US20230414780A1 (VECT HORUS, published 2023).

Assay [1] addresses T1, human transferrin receptor (hTfR) fused to EGFP, on CHO cells (human, UniProt P02786 1-760).
T1 construct: whole, on cells; also called human TfR; CHO-hTfR-EGFP; not shown: EGFP from pEGFP-C1 vector, fused to the N-terminal (intracellular) end of hTfR
The experiment in a line: apparent Kd, flow cytometry, CHO cells. As for the experimental part:
(§1) The binding properties of VHHs with affinity for the TfR from different species (i.e., human (h), mouse (m) and rhesus monkey (rh)) were tested using flow cytometry, and apparent affinities (Kd app) were determined. All experiments were performed in 96 well plates using 2×10⁵ cells/well, at 4° C. with shaking. CHO cell lines expressing the hTfR, mTfR or rhTfR fused to EGFP were saturated with PBS/BSA 2% solution during 30 min to avoid nonspecific binding, followed by incubation with purified VHHs at increasing concentrations for 1 hr. After one wash in PBS/BSA 2%, cells were incubated for 1 hr with an anti-6His tag antibody (mouse), washed twice with PBS/BSA 2%, and incubated for 1 hr with an Alexa647-conjugated anti-mouse secondary antibody. After two last washes in PBS/BSA 2%, cells were fixed by incubation for 15 min with PBS/PFA 2%, washed once with PBS and finally resuspended in PBS. Fluorescence levels were assessed using an Attune NxT flow cytometer (Thermo Fisher Scientific). Experimental data were fitted with GraphPad Prism® software using a nonlinear fit to determine the apparent Kd constants. […] Table 5 hereafter summarizes apparent Kd obtained for the tested VHHs.
On the technique in general: Flow cytometry measures light scatter and fluorescence of single cells or particles in a stream.

Assay [2] has as its target T2, mouse transferrin receptor (mTfR) fused to EGFP, on CHO cells (mouse, UniProt Q62351 1-763).
T2 construct: whole, on cells; also called mouse TfR; CHO-mTfR-EGFP; not shown: EGFP
The experiment in a line: apparent Kd, flow cytometry, CHO cells. As for the experimental part:
as §1

The target of assay [3] is T3, rhesus monkey transferrin receptor (rhTfR) fused to EGFP, on CHO cells (rhesus monkey).
T3 construct: whole, on cells; also called rhesus monkey TfR
The experiment in a line: apparent Kd, flow cytometry, CHO cells. As for the experimental part: as §1

Assay [4] concerns the target T4, human TfR ectodomain fused to a mouse IgG1 Fc fragment (human, UniProt P02786 89-760).
T4 construct: extracellular domain; ectodomain fused to the N-terminal end of the Fc, made in-house; not shown: mouse IgG1 Fc fragment
The experiment in a line: SPR, kinetic. As for the experimental part:
Binding properties of some VHHs were also evaluated using Surface Plasmon Resonance (SPR) experiments. The human, mouse and rhesus monkey TfR (having respectively GeneBank number NM_003234.2, NM_011638, NC_041755.1) ectodomains were fused to the N-terminal end of a mouse IgG1 Fc fragment and the recombinant proteins were produced and purified in-house. Interaction of VHHs with the receptors was tested using a Biacore T200 (GE Healthcare). Receptors were immobilized on an HC 1500M or a CM5 sensor chip (Xantec) either directly or on an anti-mouse IgG previously immobilized. VHHs were injected over flowcell by using the single-cycle kinetic or the multiple-cycle kinetic methods.
Background: SPR reads the build-up and loss of mass on a sensor chip optically.

T4 sequence (P02786 89-760): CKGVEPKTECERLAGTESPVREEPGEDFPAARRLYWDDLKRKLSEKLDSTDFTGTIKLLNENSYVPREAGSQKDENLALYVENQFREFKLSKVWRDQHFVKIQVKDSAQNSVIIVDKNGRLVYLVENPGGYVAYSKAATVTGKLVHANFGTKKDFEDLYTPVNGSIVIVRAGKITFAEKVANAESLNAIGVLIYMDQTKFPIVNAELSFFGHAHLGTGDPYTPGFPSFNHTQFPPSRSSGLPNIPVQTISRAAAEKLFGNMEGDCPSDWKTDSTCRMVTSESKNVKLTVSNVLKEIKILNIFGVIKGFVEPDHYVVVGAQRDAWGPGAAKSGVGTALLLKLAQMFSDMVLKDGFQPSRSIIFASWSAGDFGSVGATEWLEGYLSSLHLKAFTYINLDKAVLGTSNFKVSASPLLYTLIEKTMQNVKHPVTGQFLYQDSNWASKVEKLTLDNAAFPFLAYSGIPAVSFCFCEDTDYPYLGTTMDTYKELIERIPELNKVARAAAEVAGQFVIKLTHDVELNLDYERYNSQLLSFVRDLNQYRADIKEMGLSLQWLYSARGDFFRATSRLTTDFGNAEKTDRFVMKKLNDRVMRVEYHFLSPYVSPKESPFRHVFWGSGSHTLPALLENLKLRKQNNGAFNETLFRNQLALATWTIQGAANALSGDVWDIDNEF
T1 sequence (P02786 whole entry, the tested form may be a part): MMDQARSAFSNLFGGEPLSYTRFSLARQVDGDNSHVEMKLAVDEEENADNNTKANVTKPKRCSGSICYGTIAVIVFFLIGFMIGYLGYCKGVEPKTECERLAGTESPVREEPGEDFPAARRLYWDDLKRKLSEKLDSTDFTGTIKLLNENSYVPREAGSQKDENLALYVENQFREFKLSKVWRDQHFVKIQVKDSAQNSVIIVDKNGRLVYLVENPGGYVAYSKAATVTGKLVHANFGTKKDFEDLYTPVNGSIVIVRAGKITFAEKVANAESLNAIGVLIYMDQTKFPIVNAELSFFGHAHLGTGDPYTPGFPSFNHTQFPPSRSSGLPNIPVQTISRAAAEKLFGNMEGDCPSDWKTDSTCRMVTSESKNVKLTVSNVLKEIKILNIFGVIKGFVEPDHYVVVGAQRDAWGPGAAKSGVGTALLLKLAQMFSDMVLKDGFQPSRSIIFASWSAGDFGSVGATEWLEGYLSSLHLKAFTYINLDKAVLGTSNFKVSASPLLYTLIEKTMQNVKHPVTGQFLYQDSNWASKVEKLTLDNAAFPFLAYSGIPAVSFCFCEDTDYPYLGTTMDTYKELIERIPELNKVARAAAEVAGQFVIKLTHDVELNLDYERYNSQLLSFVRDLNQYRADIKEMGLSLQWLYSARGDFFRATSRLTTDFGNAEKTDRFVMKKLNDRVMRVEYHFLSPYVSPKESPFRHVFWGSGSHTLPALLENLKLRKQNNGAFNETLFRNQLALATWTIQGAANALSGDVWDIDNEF
T2 sequence (Q62351 whole entry, the tested form may be a part): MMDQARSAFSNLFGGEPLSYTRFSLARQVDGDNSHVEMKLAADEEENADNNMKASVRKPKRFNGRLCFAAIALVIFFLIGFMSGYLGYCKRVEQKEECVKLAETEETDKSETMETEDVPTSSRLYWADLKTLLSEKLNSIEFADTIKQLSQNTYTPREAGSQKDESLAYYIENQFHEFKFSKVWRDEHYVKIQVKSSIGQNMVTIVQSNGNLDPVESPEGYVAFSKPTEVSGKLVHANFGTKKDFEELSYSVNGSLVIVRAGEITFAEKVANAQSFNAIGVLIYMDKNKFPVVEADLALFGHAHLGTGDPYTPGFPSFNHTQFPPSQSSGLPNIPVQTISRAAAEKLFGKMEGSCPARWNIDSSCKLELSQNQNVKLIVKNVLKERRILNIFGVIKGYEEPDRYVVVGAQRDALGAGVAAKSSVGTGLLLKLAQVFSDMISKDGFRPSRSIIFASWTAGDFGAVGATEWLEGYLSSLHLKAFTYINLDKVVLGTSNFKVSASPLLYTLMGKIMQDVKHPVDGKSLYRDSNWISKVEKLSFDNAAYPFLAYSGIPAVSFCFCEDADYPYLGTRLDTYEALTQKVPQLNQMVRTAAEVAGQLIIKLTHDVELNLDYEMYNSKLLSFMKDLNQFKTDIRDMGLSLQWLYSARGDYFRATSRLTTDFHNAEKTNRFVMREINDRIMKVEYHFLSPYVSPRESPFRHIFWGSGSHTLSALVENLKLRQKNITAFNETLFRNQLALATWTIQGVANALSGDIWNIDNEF

B1: B4a (VHH)
VHH: EVQLVESGGGLVQAGGSLRLSCTASGRTVSNYRMGWFRQTPGKEREFVAAIAWAGGSLTYADSVKGRFTISRDNAKNTVYLQMNSLEPTDTAVYYCKGSRIFPTRDYWGKGTQVTVSS
As to B1, the Kd was 692 nM in assay [1], 409 nM in assay [2] and 479 nM in assay [3].

B2: C5^V13h20 (VHH)
VHH: EVQLVESGGGVVQPGGSLRLSCAASGTDFSINFIRWYRQAPGKGLEFVAGFSATGNTNYADSVKGRFTISRDNAKNAVYLQMNSLRPEDTAVYYCYMLDKWGQGTQVTVSS
Take B2: the Kd in assay [4] came to 4.55 nM; in assay [1], 3.8 nM; in assay [2], 246 nM; in assay [3], 549 nM. In assay [4], this molecule showed a koff of 0.00357 s⁻¹. Besides, the kon in assay [4] was found to be 786000 M⁻¹ s⁻¹.

B3: A9a (VHH)
VHH: QVQLVQSGGGLVQAGGSLRLSCAASGSIFLINDMGWYRQAPGKQRELVAVRGGSTKYGDSVKGRFTISRDDAKNTVYLQMNSLKPEDTAVYYCHRESGLGSSEYWGQGTQVTVSS
B3: the Kd in assay [1] was found to be 1860 nM; in assay [2], 841 nM; in assay [3] it was 965 nM.

B4: B8^V2 (VHH)
VHH: EVQLVESGGGVVQPGGSLRLSCAASGEIFSINFMRWYGQAPGKQREWVAGFTRDGSTNYPDSAKGRFTISRDNAKNTVYLQIDSLKPEDTAVYYCYMLDTWGQGTQVTVSS
Regarding B4, the Kd is 0.1 nM in assay [1], 0.2 nM in assay [2] and 0.1 nM in assay [3].

B5: B8^V11 (VHH)
VHH: EVQLVESGGGVVQPGGSLRLSCAASDEIFSINFMRWYRQAPGKQREWVAGFTRDGSTNYPDSAKGRFTISRDNAKNTVYLQIDSLKPEDTAVYYCYMLDTWGQGTQVTVSS
For the molecule B5, the values for the Kd in assay [1], in assay [2] and in assay [3] were 4.6 nM, 22 nM and 2 nM, respectively.

B6: B8^V7 (VHH)
VHH: EVQLVESGGGVVQPGGSLRLSCAASGEIFSINFMRWYRQAPGKQREWVAGFTRDGYTNYPDSAKGRFTISRDNAKNTVYLQIDSLKPEDTAVYYCYMLDTWGQGTQVTVSS
With B6, the Kd in assay [1] amounted to 5.7 nM; in assay [2], 41 nM; in assay [3], 2.6 nM.

B7: B8^V19 (VHH)
VHH: EVQLVESGGGVVQPGGSLRLSCAASGEIFSINFMRWYRQAPGKQRHWVAGFTRDGSTNYPDSAKGRFTISRDNAKNTVYLQIDSLKPEDTAVYYCYMLDTWGQGTQVTVSS
In the case of B7, the Kd came out at 6.2 nM in assay [1], 7.6 nM in assay [2] and 2.3 nM in assay [3].

B8: B8^V18 (VHH)
VHH: EVQLVESGGGVVQPGGSLRLSCAASGEIHSINFMRWYRQAPGKQREWVAGFTRDGSTNYPDSAKGRFTISRDNAKNTVYLQIDSLKPEDTAVYYCYMLDTWGQGTQVTVSS
Consider B8, for which the Kd in assay [1] worked out at 3.8 nM; in assay [2], 43 nM; in assay [3], 1.6 nM.

B9: B8^V23 (VHH)
VHH: EVQLVESGGGVVQPGGSLRLSCAASGEIFSINFMIWYRQAPGKQREWVAGFTRDGSTNYPDSAKGRFTISRDNAKNTVYLQIDSLKPEDTAVYYCYMLDTWGQGTQVTVSS
With B9, the Kd turned out to be 29 nM in assay [1], 1550 nM in assay [2] and 939 nM in assay [3].

B10: B8^V9 (VHH)
VHH: EVQLVESGGGVVQPGGSLRLSCAASGEIFSINFMRWYRQAPGKQREWVAGFTRDGSKNYPDSAKGRFTISRDNAKNTVYLQIDSLKPEDTAVYYCYMLDTWGQGTQVTVSS
Regarding B10, the figures for the Kd in assay [1], in assay [2] and in assay [3] were 2.8 nM, 31 nM and 2.4 nM, respectively.

B11: B8^V6 (VHH)
VHH: EVQLVESGGGVVQPGGSLRLSCAASGEIFSINFMRWYRQAPGKQREWVAGFTRDGFTNYPDSAKGRFTISRDNAKNTVYLQIDSLKPEDTAVYYCYMLDTWGQGTQVTVSS
For the molecule B11, the Kd in assay [1] is 3.8 nM; in assay [2], 16 nM; in assay [3], 2.7 nM.

B12: B8^V17 (VHH)
VHH: EVQLVESGGGVVQPGGSLRLSCAASGEIFSINFMRWYRQAPGKQREFVAGFTRDGSTNYPDSAKGRFTISRDNAKNTVYLQIDSLKPEDTAVYYCYMLDTWGQGTQVTVSS
Regarding B12, the Kd in assay [1] turned out to be 4.8 nM; in assay [2], 5.2 nM; in assay [3] it was 2.5 nM.

B13: B8^V8 (VHH)
VHH: EVQLVESGGGVVQPGGSLRLSCAASGEIFSINFMRWYRQAPGKQREWVAGFTRDGSLNYPDSAKGRFTISRDNAKNTVYLQIDSLKPEDTAVYYCYMLDTWGQGTQVTVSS
Take B13: the Kd in assay [1] was determined as 2.5 nM; in assay [2], 8.1 nM; in assay [3], 2.1 nM.

B14: B8^V28 (VHH)
VHH: EVQLVESGGGVVQPGGSLRLSCAASGEIFSINFMRWYRQAPGKQREWVAGFTRDGSTFYPDSAKGRFTISRDNAKNTVYLQIDSLKPEDTAVYYCYMLDTWGQGTQVTVSS
With B14, the Kd in assay [1] turned out to be 31 nM; in assay [2], 2500 nM; in assay [3], 755 nM.

B15: B8^V5 (VHH)
VHH: EVQLVESGGGVVQPGGSLRLSCAASGEIFSINFMRWYRQAPGKIREWVAGFTRDGSTNYPDSAKGRFTISRDNAKNTVYLQIDSLKPEDTAVYYCYMLDTWGQGTQVTVSS
For B15, the values for the Kd in assay [1], in assay [2] and in assay [3] were 2.3 nM, 3.8 nM and 2.1 nM, respectively.

B16: B8^V30 (VHH)
VHH: EVQLVESGGGVVQPGGSLRLSCAASGEIFSINFMRWYRQAPGKQREWVAGFTRDGSTNYPDSAKGRFTISRDNAKNTVYLQIDSLKPEDTAVYYCYMQDTWGQGTQVTVSS
Consider B16, for which the Kd was 24 nM in assay [1], 3320 nM in assay [2] and 505 nM in assay [3].

B17: B8^V14 (VHH)
VHH: EVQLVESGGGVVQPGGSLRLSCAASGEIFSINFMRWYRQAPGKQREWVAGFTRLGSTNYPDSAKGRFTISRDNAKNTVYLQIDSLKPEDTAVYYCYMLDTWGQGTQVTVSS
As for B17, the Kd in assay [1] was 4.8 nM; in assay [2] it was 41 nM; in assay [3], 1.9 nM.

B18: B8^V25 (VHH)
VHH: EVQLVESGGGVVQPGGSLRLSCAASGEIFSINFMRWYRQAPGKQREWVAAFTRDGSTNYPDSAKGRFTISRDNAKNTVYLQIDSLKPEDTAVYYCYMLDTWGQGTQVTVSS
Turning to B18, the Kd in assay [1] was determined as 14 nM; in assay [2] it was 2350 nM; in assay [3] it was 425 nM.

B19: B8^V15 (VHH)
VHH: EVQLVESGGGVVQPGGSLRLSCAASGEIFSINFMRWYRQAPGKQREWVAGFTRDDSTNYPDSAKGRFTISRDNAKNTVYLQIDSLKPEDTAVYYCYMLDTWGQGTQVTVSS
For the molecule B19, the Kd worked out at 4.7 nM in assay [1], 684 nM in assay [2] and 4.3 nM in assay [3].

B20: B8^V4 (VHH)
VHH: EVQLVESGGGVVQPGGSLRLSCAASGEIFSINFMRWYRQAPIKQREWVAGFTRDGSTNYPDSAKGRFTISRDNAKNTVYLQIDSLKPEDTAVYYCYMLDTWGQGTQVTVSS
Consider B20, for which the Kd in assay [1] turned out to be 0.4 nM; in assay [2], 0.6 nM; in assay [3] it was 0.3 nM.

B21: B8^V20 (VHH)
VHH: EVQLVESGGGVVQPGGSLRLSCAASGEIFSINFMRWYRQAPGKQREWVAGFTRDGSHNYPDSAKGRFTISRDNAKNTVYLQIDSLKPEDTAVYYCYMLDTWGQGTQVTVSS
Consider B21, for which the Kd came to 4.5 nM in assay [1], 6.4 nM in assay [2] and 1.8 nM in assay [3].

B22: B8^V21 (VHH)
VHH: EVQLVESGGGVVQPGGSLRLSCAASGEIFSINNMRWYRQAPGKQREWVAGFTRDGSTNYPDSAKGRFTISRDNAKNTVYLQIDSLKPEDTAVYYCYMLDTWGQGTQVTVSS
As to B22, the values for the Kd in assay [1], in assay [2] and in assay [3] were 29 nM, 3350 nM and 469 nM, respectively.

The koff is the rate constant with which the complex falls apart. The kon is the rate constant with which the complex forms.
